# Target: T1, Biotinylated C3b (human, UniProt P01024 23-667; P01024 749-1663, biotin (Maleimide-PEG2-Biotin))
# T1 construct: complement C3, human, beta chain; complement C3, human, alpha' chain of C3b; also called biotin-C3b; immobilized C3b; source: made from plasma C3 by trypsin cleavage in the presence of Maleimide-PEG2-Biotin, purified by cation exchange
# Test: BLI; biotinylated C3b on streptavidin sensors; FPht variants at 100 to 1.56 μg/mL, 60 s steps; 30°C; 20 mM MES pH 6.0, 100 mM NaCl, 0.05% Tween, 1 mg/mL BSA; steady state 1:1 fit (for WT also kinetic analysis)
# Settings: both partners purified
# T1 sequence (P01024 23-667, chain 1 of 2): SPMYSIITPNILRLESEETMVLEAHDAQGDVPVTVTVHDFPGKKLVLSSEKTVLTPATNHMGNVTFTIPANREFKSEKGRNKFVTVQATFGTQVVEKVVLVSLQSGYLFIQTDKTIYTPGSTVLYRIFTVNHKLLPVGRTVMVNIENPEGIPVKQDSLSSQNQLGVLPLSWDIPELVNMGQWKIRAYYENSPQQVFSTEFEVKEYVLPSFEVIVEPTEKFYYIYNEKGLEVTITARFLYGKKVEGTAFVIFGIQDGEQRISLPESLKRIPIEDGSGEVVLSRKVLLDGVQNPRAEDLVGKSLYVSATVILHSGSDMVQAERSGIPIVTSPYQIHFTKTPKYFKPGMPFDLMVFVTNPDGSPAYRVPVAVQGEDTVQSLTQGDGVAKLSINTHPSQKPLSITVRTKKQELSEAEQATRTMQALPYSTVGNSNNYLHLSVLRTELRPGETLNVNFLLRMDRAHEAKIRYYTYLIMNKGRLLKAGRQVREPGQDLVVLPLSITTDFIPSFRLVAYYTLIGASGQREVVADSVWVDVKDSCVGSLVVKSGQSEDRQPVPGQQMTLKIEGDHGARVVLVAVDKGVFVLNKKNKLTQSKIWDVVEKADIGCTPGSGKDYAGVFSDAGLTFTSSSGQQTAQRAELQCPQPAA
# T1 sequence (P01024 749-1663, chain 2 of 2): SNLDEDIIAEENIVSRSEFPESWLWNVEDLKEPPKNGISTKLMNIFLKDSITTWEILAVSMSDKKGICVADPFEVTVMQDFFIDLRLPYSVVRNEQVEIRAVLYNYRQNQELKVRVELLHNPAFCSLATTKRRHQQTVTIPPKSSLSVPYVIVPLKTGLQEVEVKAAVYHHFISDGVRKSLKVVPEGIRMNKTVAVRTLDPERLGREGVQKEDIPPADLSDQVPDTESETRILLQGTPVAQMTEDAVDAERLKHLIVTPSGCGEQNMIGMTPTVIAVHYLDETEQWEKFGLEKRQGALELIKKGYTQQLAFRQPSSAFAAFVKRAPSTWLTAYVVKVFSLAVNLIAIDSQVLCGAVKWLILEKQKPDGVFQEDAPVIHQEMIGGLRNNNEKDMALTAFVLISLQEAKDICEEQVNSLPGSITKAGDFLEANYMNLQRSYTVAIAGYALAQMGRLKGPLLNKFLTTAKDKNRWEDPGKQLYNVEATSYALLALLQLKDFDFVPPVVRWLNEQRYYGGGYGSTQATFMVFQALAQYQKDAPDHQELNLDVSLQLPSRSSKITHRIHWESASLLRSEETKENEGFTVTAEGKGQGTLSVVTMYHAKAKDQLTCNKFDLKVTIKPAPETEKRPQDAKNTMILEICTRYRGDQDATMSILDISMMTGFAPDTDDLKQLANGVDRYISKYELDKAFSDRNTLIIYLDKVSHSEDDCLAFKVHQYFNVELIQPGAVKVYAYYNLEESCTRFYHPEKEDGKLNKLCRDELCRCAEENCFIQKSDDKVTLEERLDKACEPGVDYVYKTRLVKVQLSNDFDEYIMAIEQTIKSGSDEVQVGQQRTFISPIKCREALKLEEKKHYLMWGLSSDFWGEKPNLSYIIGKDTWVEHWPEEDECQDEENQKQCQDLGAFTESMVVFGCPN
binder,measurement,value
FPht R353A (complex) chain 1: DPVLCFTQYEESSGKCKGLLGGGVSVEDCCLNTAFAYQKRSGGLCQPCRSPRWSLWSTWAPCSVTCSEGSQLRYRRCVGWNGQCSGKVAPGTLEWQLQACEDQQCCPEMGGWSGWGPWEPCSVTCSKGTRTRRRACNHPAPKCGGHCPGQAQESEACDTQQVCPTHGAWATWGPWTPCSASCHGGPHEPKETRSRKCSAPEPSQKPPGKPCPGLAYEQRRCTGLPPCP chain 2: VAGGWGPWGPVSPCPVTCGLGQTMEQRTCNHPVPQHGGPFCAGDATRTHICNTAVPCPVDGEWDSWGEWSPCIRRNMKSISCQEIPGQQSRGRTCRGAKFDGHRCAGQQQDIRHCYSIQHCPLKGSWSEWSTWGLCMPPCGPNPTRARQRLCTPLLPKYPPTVSMVEGQGEKNVTFWGRPLPRCEELQGQKLVVEEKRPCLHVPACKDPEEEEL,Kd,1000 nM

# — publication PMC6713926, “Structural Basis for Properdin Oligomerization and Convertase Stimulation in the Human Complement System” (Frontiers in Immunology, 2019)
